Test results reported in patent US20120141382, “APTAMER MODULATORS OF COMPLEMENT PROTEIN C3 AND BIOLOGICALLY ACTIVE PROTEOLYTIC PRODUCTS THEREOF” (Research Foundation of State University of New York at …, published 2012).

Legend:
[1] = molecular target: T1, Complement C3b (Homo sapiens, UniProt P01024;P01024 P01024:23-667,P01024:749-1663); experiment: filter; 20 mM Tris-HCl pH 7.6, 150 mM NaCl, 10 mM MgCl2; minimized version may have been used; settings: tags: Quidel; label: 32P-CTP uniform
Experimental: (§1) Initially, RNA was heated to 65° C. for 10 minutes then switched to 37° C. for an additional 10 minutes before the addition of protein. The reactions were allowed to equilibrate for 15-20 minutes at ambient temperature before being subjected to Electrophoretic Mobility Shift Assay (“EMSA”) or filter binding.
(§2) For filter binding, the above-mentioned reaction mixture was immobilized on nitrocellulose (Millipore) using a manifold (Millipore) or a Bio-Dot SF (slot format) Microfiltration System (Bio-Rad, Hercules, Calif.). The nitrocellulose membrane was first soaked in binding buffer containing 20 mM Tris-Cl (pH 7.6), 150 mM NaCl, 10 mM MgCl₂. Nitrocellulose and two pieces of 3M Whatmann filter paper (3M) were assembled in the manifold as per company recommendations. Each well was washed with 1 ml of binding buffer. Samples were loaded in the wells and vacuum was applied to bind the complex, then each well was washed with 2 ml of binding buffer. The nitrocellulose membrane was then air dried and exposed to a phosphor screen (GE Healthcare) for 1 hour. The image was scanned using a Typhoon imager and ImageQuant software and the data was analyzed.

[2] = molecular target: T2, Complement iC3b (Homo sapiens, UniProt P01024;P01024;P01024 P01024:23-667,P01024:749-1303,P01024:1321-1663); experiment: as above; settings: tags: Calbiochem; label: 32P-CTP uniform
T2 sequence (P01024 23-667, chain 1 of 3): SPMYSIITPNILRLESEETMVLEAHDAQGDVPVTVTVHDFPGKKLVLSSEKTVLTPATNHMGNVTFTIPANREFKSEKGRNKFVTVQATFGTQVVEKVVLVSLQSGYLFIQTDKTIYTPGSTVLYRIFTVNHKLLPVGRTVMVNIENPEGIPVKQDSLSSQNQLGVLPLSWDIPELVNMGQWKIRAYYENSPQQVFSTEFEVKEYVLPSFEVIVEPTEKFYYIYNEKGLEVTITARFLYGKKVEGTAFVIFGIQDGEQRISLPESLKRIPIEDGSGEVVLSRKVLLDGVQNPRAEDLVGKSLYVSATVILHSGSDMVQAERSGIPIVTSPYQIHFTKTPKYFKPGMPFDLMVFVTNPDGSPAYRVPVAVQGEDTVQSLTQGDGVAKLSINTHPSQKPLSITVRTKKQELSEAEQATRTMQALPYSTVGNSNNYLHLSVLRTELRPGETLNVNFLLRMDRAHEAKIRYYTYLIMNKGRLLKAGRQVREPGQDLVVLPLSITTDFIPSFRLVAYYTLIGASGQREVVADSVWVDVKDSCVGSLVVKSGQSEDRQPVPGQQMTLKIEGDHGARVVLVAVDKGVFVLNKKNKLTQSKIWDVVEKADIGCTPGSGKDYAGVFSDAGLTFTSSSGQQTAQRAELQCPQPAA
T2 sequence (P01024 749-1303, chain 2 of 3): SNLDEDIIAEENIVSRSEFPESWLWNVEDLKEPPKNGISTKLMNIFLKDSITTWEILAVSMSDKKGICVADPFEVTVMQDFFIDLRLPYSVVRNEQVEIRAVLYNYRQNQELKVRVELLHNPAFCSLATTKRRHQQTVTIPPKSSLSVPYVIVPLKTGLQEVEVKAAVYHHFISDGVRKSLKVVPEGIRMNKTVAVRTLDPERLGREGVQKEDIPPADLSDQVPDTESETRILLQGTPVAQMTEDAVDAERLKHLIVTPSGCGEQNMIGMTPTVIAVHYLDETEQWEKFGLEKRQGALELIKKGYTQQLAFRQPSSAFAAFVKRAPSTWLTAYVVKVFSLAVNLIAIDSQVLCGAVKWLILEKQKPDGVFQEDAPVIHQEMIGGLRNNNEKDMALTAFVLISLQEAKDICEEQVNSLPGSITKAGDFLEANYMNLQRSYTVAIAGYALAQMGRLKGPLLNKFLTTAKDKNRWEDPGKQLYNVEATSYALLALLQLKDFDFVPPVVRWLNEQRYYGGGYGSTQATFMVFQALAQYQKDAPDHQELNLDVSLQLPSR
T2 sequence (P01024 1321-1663, chain 3 of 3): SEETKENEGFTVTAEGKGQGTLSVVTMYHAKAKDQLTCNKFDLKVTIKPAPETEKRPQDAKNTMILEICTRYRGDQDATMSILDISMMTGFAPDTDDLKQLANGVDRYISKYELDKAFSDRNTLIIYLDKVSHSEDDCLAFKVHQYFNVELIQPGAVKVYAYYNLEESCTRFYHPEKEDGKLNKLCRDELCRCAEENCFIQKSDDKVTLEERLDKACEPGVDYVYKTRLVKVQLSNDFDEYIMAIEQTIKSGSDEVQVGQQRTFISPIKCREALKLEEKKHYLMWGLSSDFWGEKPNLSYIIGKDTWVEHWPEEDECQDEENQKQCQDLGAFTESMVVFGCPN
Experimental: as §1, §2

[3] = molecular target: T3, Complement C3 (Homo sapiens, UniProt P01024;P01024 P01024:23-667,P01024:672-1663); experiment: as above; settings: tags: Calbiochem; label: 32P-CTP uniform
T3 sequence (P01024 23-667, chain 1 of 2): as the sequence (P01024 23-667, chain 1 of 3) above
T3 sequence (P01024 672-1663, chain 2 of 2): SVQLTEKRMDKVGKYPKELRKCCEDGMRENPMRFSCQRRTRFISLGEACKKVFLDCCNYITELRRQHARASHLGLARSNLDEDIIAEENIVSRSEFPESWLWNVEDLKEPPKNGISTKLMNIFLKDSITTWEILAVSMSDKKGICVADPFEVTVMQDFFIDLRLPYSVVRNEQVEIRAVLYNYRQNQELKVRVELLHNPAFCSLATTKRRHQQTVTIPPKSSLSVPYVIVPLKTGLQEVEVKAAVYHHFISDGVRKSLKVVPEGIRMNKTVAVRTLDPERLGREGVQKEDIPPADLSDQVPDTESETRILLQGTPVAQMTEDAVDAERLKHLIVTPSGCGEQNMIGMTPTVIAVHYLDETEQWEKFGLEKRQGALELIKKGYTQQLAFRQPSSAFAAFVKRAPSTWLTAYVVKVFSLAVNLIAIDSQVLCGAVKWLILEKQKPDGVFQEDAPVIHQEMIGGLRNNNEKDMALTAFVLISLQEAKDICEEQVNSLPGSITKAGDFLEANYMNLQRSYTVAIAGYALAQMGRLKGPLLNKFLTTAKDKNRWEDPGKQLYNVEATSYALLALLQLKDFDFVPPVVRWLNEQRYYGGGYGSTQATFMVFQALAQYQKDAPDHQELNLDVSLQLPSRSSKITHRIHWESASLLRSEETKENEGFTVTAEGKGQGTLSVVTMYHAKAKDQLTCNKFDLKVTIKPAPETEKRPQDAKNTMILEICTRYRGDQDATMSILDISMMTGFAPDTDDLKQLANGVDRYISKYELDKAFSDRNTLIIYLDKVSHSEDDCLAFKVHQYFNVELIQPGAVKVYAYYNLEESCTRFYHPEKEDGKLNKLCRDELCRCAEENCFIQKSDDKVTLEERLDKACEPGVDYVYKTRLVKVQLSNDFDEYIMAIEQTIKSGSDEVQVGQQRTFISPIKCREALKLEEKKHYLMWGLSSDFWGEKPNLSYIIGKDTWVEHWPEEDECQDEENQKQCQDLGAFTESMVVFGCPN
Experimental: as §1, §2

[4] = molecular target: T1, Complement C3b; experiment: EMSA; retarded band; settings: tags: Quidel; label: 32P-CTP uniform; hairpin with apical loop and internal loop
[5] = molecular target: T2, Complement iC3b; experiment: EMSA; retarded band; settings: tags: Calbiochem; label: 32P-CTP uniform; hairpin with apical loop and internal loop
[6] = molecular target: T3, Complement C3; experiment: EMSA; retarded band; 2.5 mM MgCl2 gel, 4 C; settings: tags: Calbiochem; label: 32P-CTP uniform; hairpin with apical loop and internal loop
[7] = molecular target: T2, Complement iC3b; experiment: filter; no binding by filter assay and EMSA; settings: tags: Calbiochem; label: 32P-CTP uniform
Experimental: as §1, §2

[8] = molecular target: T1, Complement C3b; experiment: filter; 20 mM Tris-HCl pH 7.6, 150 mM NaCl, 10 mM MgCl2; settings: tags: Quidel; label: 32P-CTP uniform
Experimental: as §1, §2

[9] = molecular target: T3, Complement C3; experiment: filter; 20 mM Tris-HCl pH 7.6, 150 mM NaCl, 10 mM MgCl2; does not compete with AptC3-1; settings: tags: Calbiochem; label: 32P-CTP uniform
Experimental: as §1, §2

T1 sequence (P01024 23-667, chain 1 of 2): as the sequence (P01024 23-667, chain 1 of 3) above
T1 sequence (P01024 749-1663, chain 2 of 2): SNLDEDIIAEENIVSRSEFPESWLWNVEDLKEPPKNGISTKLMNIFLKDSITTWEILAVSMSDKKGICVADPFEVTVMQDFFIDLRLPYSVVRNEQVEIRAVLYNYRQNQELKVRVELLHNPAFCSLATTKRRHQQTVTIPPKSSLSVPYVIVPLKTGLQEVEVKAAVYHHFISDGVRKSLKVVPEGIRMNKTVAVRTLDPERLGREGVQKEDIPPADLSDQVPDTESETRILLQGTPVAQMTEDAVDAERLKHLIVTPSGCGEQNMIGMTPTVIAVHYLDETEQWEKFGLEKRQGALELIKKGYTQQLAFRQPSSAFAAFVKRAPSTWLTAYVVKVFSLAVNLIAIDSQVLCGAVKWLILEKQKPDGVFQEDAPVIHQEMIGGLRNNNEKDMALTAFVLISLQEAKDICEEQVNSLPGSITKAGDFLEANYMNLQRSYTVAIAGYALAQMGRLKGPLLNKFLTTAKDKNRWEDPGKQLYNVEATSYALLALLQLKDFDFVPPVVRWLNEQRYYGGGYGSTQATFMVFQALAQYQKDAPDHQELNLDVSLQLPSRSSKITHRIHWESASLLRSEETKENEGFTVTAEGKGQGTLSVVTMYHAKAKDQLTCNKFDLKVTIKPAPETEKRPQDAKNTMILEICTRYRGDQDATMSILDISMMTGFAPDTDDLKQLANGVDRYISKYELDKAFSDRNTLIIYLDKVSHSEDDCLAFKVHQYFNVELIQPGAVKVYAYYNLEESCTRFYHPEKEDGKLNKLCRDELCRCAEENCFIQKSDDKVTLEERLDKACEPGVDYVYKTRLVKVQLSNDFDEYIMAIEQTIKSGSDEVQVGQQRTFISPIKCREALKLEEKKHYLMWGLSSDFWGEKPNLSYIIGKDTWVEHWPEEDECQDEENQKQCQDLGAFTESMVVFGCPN

B1: AptC3-1 (ssRNA)
RNA: GGGAGAAUUCAACUGCCAUCUAGGCUAGAAGAAUAUGACGGAUUGACCGUAUCAGGGUAGCCGAAGGGAGACAGAAGUACUACAAGCUUCUGGACUCGGU
Q: What does the source list for B1?
A: Kd [1]: ~20 nM; Kd [2]: ~20 nM; Kd [3]: ~20 nM

B2: MiniAptC3-1 (ssRNA)
RNA: GGGCUAGAAGAAUAUGACGGAUUGACCGUAUCAGGGUAGCCG
Q: Does B2 bind [4]?
A: binds

Q: Does B2 bind [5]?
A: binds

Q: Does B2 bind [6]?
A: binds

B3: AptC3-2 (ssRNA)
RNA: GGGAGAAUUCAACUGCCAUCUAGGCAAAUCCGCGAGCGCCGGUACCGGUGGCGCAUGCCCACACAGCACUAAACGAGUACUACAAGCUUCUGGACUCGGU
Q: Which results are given for B3?
A: binding result [7]: no binding; Kd [8]: 30 nM; Kd [9]: 30 nM
